This test deals with T1, DLL3 endogenously expressed on SHP77 cells (human, UniProt Q9NYJ7 27-618).
T1 construct: whole, on cells; also called human DLL3 on SHP-77
T1 sequence (looked up): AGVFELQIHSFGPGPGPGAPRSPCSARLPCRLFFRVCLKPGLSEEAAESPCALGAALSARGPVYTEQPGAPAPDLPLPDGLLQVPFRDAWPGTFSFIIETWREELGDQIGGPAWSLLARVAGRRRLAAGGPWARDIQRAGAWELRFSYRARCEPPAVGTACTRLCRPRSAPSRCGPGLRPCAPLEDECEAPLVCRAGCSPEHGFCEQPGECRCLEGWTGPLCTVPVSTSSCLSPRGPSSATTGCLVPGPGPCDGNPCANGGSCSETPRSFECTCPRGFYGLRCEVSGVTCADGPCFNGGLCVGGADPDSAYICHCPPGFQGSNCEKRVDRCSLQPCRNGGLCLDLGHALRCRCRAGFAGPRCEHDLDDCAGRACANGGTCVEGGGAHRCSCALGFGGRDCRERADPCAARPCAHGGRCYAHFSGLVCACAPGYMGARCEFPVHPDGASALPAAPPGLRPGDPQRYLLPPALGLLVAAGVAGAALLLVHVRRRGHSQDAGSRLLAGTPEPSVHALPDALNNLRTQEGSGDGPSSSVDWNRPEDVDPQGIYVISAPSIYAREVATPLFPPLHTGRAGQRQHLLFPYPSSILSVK
In words: flow cytometry (FACS) on SHP77 cells.

B1: DLL3-scFv-2 (scFv)
scFv: DIVMTQSPATLSVTPGDRVSLSCRASQTISDYLHWYQQRSHESPRLLIKYASQSISGIPSRFSGSGSGSDFTLSINSVEPEDVGVYYCQNGHSFPLTFGAGTKLELKGGGGSGGGGSGGGGSEVQLQQSGTVLARPGASVKMSCKTSGYTFTSYWMHWVKQSPGQGLEWIGTIYPGNSDTRYNQKFKDKAYVTAVTSASTAYMELSSLTNEESAVYYCTRSYDYGDLDYWGQGTTLTVSS
notes: Murine anti-DLL3 clone; also called DLL3 chimeric antibody DLL3-scFv-2
Regarding B1, the binding result is “binds”.

B2: DLL3-scFv-3 (scFv)
scFv: DIVLTQSPASLAVSLGQRATISCRASKSVSTSGFSYMHWYQQKPGQPPKLLIYLASNLESGVPARFSGSGSGTDFTLNIHPVEEEDAATYYCQHSRELPFTFGSGTKLEIKGGGGSGGGGSGGGGSQVQLQQSGAELVKPGASVRISCKASGYAFSNYWINWVKQRPGKGLEWIGQINPGDGDTIYNGKFKGKATLTADKSSSTAYMQLSSLTSEDSAVYFCEREGRNYGDFAYWGQGTTLTVSS
notes: Murine anti-DLL3 clone; also called DLL3 chimeric antibody DLL3-scFv-3
Regarding B2, the binding result was “binds”.

B3: DLL3-scFv-1 (scFv)
scFv: DIVMTQSQKFMSTSVGDRVSITCKASQNVGTAVAWYQQKPGQSPKLLIFSASIRYTGVPDRFTGSGSGTDFTLTISNMQSEDLADYFCQQYSSSPYTFGGGTKLEIKGGGGSGGGGSGGGGSEVQLQQSGPVLVKPGASVKMSCKASGYTFTDYYMNWVKRSHGKSLEWIGIINPYNGGTSYNQKFRGKATLTVDKSSNTAYMELNSLTSEDSAVYYCSRYDYDYDVEGAMDYWGQGTSVTVSS
notes: Murine anti-DLL3 clone; also called DLL3 chimeric antibody DLL3-scFv-1
Turning to B3, the binding result is on record as “binds”.

The record behind these values is EP4796562A1 (Shanghai Simnova Biotechnology Co., Ltd., dated 2026).
